Sequences and labels used below:
T1: EsCas13d, nuclease-dead (Eubacterium siraeum, UniProt B0MS50, R295A;H300A;R849A;H854A)
T1 sequence: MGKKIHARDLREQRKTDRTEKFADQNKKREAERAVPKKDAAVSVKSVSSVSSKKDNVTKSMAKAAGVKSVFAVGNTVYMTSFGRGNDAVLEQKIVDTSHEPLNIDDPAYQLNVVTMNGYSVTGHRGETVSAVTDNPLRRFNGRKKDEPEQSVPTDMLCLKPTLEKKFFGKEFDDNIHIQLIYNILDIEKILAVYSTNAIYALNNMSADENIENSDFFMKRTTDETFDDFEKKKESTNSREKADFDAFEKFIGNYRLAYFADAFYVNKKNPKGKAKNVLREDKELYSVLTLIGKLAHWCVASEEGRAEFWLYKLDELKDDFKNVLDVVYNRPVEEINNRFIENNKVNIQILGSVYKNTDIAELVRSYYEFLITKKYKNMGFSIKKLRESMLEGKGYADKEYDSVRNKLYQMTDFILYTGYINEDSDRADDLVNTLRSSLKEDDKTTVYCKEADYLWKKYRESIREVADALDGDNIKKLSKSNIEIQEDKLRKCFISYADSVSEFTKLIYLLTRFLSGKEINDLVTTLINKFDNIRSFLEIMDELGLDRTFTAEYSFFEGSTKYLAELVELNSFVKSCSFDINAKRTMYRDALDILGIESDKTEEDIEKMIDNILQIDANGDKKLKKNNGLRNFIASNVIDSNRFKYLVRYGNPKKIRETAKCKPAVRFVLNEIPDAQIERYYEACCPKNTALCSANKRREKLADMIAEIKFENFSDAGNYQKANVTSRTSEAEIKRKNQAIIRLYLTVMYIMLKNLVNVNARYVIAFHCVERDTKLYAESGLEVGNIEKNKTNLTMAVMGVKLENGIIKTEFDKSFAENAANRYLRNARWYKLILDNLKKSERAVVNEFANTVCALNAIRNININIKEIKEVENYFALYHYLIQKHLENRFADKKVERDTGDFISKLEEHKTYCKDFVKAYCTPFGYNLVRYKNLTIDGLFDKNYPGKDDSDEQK

B1: target 1 C6A,A9U (mixed)
RNA 1: CACCCGUGCAAAAAUGCAGGGGUCUAAAACUGAGCGGAUAACCUCUCUAUGG
RNA 2: GGGAAUGGAUCCACAUCUACGAAUUCGUACCAUAGAGAGGUUUUCAGCUCACCGAGAUCGGAAGAGCACACGU
B2: target 1 insG 3' of 20,insG 3' of 8 (mixed)
RNA 1: B1 RNA 1
RNA 2: GGGAAUGGAUCCACAUCUACGAAUUCGUACCAGUAGAGAGGUUAUGCCGCUCACCGAGAUCGGAAGAGCACACGU
B3: target 1 C2A,A9U (mixed)
RNA 1: B1 RNA 1
RNA 2: B1 RNA 2 with A46C, C50A
B4: target 2 MT 5'PFS AAU 3'PFS CCG (mixed)
RNA 1: CACCCGUGCAAAAUUGCAGGGGUCUAAAACCUUCUCCAAAUUGUUUCAUCCU
RNA 2: GGGAAUGGAUCCACAUCUACGAAUUCAAUAGGAUGAAACAAUUUGGAGAAGCCGAGAUCGGAAGAGCACACGU
B5: target 2 MT 5'PFS GGC 3'PFS AGU (mixed)
RNA 1: B4 RNA 1
RNA 2: B4 RNA 2 with A27G, A28G, U29C, C52A, C53G, G54U
B6: target 2 MT 5'PFS GGC 3'PFS CAU (mixed)
RNA 1: B4 RNA 1
RNA 2: B4 RNA 2 with A27G, A28G, U29C, C53A, G54U
B7: target 2 MT 5'PFS CAU 3'PFS CCA (mixed)
RNA 1: B4 RNA 1
RNA 2: B4 RNA 2 with A27C, G54A
B8: target 2 MT 5'PFS AAG 3'PFS UCC (mixed)
RNA 1: B4 RNA 1
RNA 2: B4 RNA 2 with U29G, C52U, G54C
B9: target 2 MT 5'PFS UUU 3'PFS AAG (mixed)
RNA 1: B4 RNA 1
RNA 2: B4 RNA 2 with A27U, A28U, C52A, C53A
B10: target 2 MT 5'PFS GAU 3'PFS AUA (mixed)
RNA 1: B4 RNA 1
RNA 2: B4 RNA 2 with A27G, C52A, C53U, G54A
B11: target 2 MT 5'PFS GCU 3'PFS AAU (mixed)
RNA 1: B4 RNA 1
RNA 2: B4 RNA 2 with A27G, A28C, C52A, C53A, G54U
B12: target 2 MT 5'PFS GUA 3'PFS UCU (mixed)
RNA 1: B4 RNA 1
RNA 2: B4 RNA 2 with A27G, A28U, U29A, C52U, G54U
B13: target 2 MT 5'PFS CAU 3'PFS CCG (mixed)
RNA 1: B4 RNA 1
RNA 2: B4 RNA 2 with A27C
B14: target 2 MT 5'PFS UUU 3'PFS AAA (mixed)
RNA 1: B4 RNA 1
RNA 2: B4 RNA 2 with A27U, A28U, C52A, C53A, G54A
B15: target 2 MT 5'PFS GCU 3'PFS AAC (mixed)
RNA 1: B4 RNA 1
RNA 2: B4 RNA 2 with A27G, A28C, C52A, C53A, G54C
B16: target 2 MT 5'PFS GGC 3'PFS CAC (mixed)
RNA 1: B4 RNA 1
RNA 2: B4 RNA 2 with A27G, A28G, U29C, C53A, G54C
B17: target 2 MT 5'PFS GGC 3'PFS CAG (mixed)
RNA 1: B4 RNA 1
RNA 2: B4 RNA 2 with A27G, A28G, U29C, C53A
B18: target 2 MT 5'PFS GGC 3'PFS AGC (mixed)
RNA 1: B4 RNA 1
RNA 2: B4 RNA 2 with A27G, A28G, U29C, C52A, C53G, G54C
B19: target 2 MT 5'PFS GCU 3'PFS CCG (mixed)
RNA 1: B4 RNA 1
RNA 2: B4 RNA 2 with A27G, A28C
B20: target 2 MT 5'PFS GGC 3'PFS CAA (mixed)
RNA 1: B4 RNA 1
RNA 2: B4 RNA 2 with A27G, A28G, U29C, C53A, G54A
B21: target 2 MT 5'PFS GGC 3'PFS AGG (mixed)
RNA 1: B4 RNA 1
RNA 2: B4 RNA 2 with A27G, A28G, U29C, C52A, C53G
B22: target 2 MT 5'PFS GAU 3'PFS AUG (mixed)
RNA 1: B4 RNA 1
RNA 2: B4 RNA 2 with A27G, C52A, C53U
B23: target 2 MT 5'PFS GAU 3'PFS AUC (mixed)
RNA 1: B4 RNA 1
RNA 2: B4 RNA 2 with A27G, C52A, C53U, G54C
B24: target 2 MT 5'PFS GCU 3'PFS AAA (mixed)
RNA 1: B4 RNA 1
RNA 2: B4 RNA 2 with A27G, A28C, C52A, C53A, G54A
B25: target 2 MT 5'PFS GAC 3'PFS CGG (mixed)
RNA 1: B4 RNA 1
RNA 2: B4 RNA 2 with A27G, U29C, C53G
B26: target 2 MT 5'PFS UUU 3'PFS AAU (mixed)
RNA 1: B4 RNA 1
RNA 2: B4 RNA 2 with A27U, A28U, C52A, C53A, G54U
B27: target 2 MT 5'PFS CAU 3'PFS CCC (mixed)
RNA 1: B4 RNA 1
RNA 2: B4 RNA 2 with A27C, G54C
B28: target 2 MT 5'PFS GCU 3'PFS AAG (mixed)
RNA 1: B4 RNA 1
RNA 2: B4 RNA 2 with A27G, A28C, C52A, C53A
B29: target 2 MT 5'PFS GUA 3'PFS UCG (mixed)
RNA 1: B4 RNA 1
RNA 2: B4 RNA 2 with A27G, A28U, U29A, C52U
B30: target 2 MT 5'PFS AUA 3'PFS UAC (mixed)
RNA 1: B4 RNA 1
RNA 2: B4 RNA 2 with A28U, U29A, C52U, C53A, G54C
B31: target 2 MT 5'PFS GGC 3'PFS UAC (mixed)
RNA 1: B4 RNA 1
RNA 2: B4 RNA 2 with A27G, A28G, U29C, C52U, C53A, G54C
B32: target 2 MT 5'PFS CUU 3'PFS AUU (mixed)
RNA 1: B4 RNA 1
RNA 2: B4 RNA 2 with A27C, A28U, C52A, C53U, G54U
B33: target 2 MT 5'PFS GGC 3'PFS AGA (mixed)
RNA 1: B4 RNA 1
RNA 2: B4 RNA 2 with A27G, A28G, U29C, C52A, C53G, G54A
B34: target 2 MT 5'PFS AAG 3'PFS UCU (mixed)
RNA 1: B4 RNA 1
RNA 2: B4 RNA 2 with U29G, C52U, G54U
B35: target 2 MT 5'PFS UUU 3'PFS AAC (mixed)
RNA 1: B4 RNA 1
RNA 2: B4 RNA 2 with A27U, A28U, C52A, C53A, G54C
B36: target 2 MT 5'PFS UCG 3'PFS CUA (mixed)
RNA 1: B4 RNA 1
RNA 2: B4 RNA 2 with A27U, A28C, U29G, C53U, G54A

Substitutions are numbered along the chain they refer to. Numbers in names are those of the source.

The target of the series is T1, EsCas13d, nuclease-dead. The series can be described thus: crRNA (strand 1, pre-loaded); Mg2+; 40 mM Tris-HCl pH 7.5, 150 mM NaCl, 6 mM MgCl2, 1 mM DTT, 0.1% Tween-20, 0.2 mg/ml BSA; 25 C; 10 min per concentration, then washed. As to conditions: tags: His6-TwinStrep-SUMO cleaved; N-terminal SNAP kept (SNAP-Surface 488); label: 3' end held by stalled T7 RNA polymerase.
Broadly, the Kd is the concentration at which binding is half-saturated. A high value points to a looser complex. For B1, the affinity, expressed as Kd, was 7.38 ± 0.22 nM.

B2 displayed a Kd of 40 ± 4 nM.

Molecule B3 registered a Kd of 8.3 ± 0.4 nM.

B4: the Kd came to 5.9 ± 0.7 nM.

In the case of B5, the Kd came to 11.5 ± 0.8 nM.

Consider B6, for which the Kd was 14.4 ± 2 nM.

In turn, B7 registered a Kd of 11.5 ± 1.6 nM.

As for B8, binding was characterised by a dissociation constant (Kd) of 16.3 ± 2.5 nM. The Kd values of the last two molecules are within 1.5-fold of each other.

Molecule B9 gave a Kd of 7.1 ± 0.9 nM.

B10 returned a Kd of 14 ± 6 nM.

Turning to B11, binding was put at a Kd of 12 ± 4 nM.

B12 showed a Kd of 18.6 ± 2.7 nM.

B13 yielded a Kd of 4.07 ± 0.31 nM.

On to B14, for which the affinity, expressed as Kd, was 8.9 ± 1.2 nM. This Kd lies about 2.2-fold higher than the previous one.

Consider B15, for which the Kd amounted to 10.1 ± 1.9 nM.

Molecule B16 came in with a Kd of 15.8 ± 3.1 nM.

Turning to B17, the affinity, expressed as Kd, was 12.1 ± 1.4 nM.

As for B18, binding was put at a Kd of 12.1 ± 1.6 nM.

Take B19: binding was characterised by a dissociation constant (Kd) of 17.9 ± 3.4 nM. This Kd and that of the molecule before are within 1.5-fold of each other.

On to B20, for which binding was put at a Kd of 8.9 ± 1.7 nM.

For the molecule B21, binding was put at a Kd of 14.9 ± 1.8 nM.

As for B22, the affinity, expressed as Kd, was 11.8 ± 1.1 nM. The Kd values of the last two molecules are within 1.5-fold of each other.

B23 gave a Kd of 10.5 ± 1.8 nM.

Molecule B24 yielded a Kd of 5.9 ± 1 nM.

Turning to B25, the Kd was 8.9 ± 1 nM. This Kd lies about 1.5-fold higher than the previous one.

In the case of B26, the Kd was found to be 9.9 ± 1.2 nM.

B27 yielded a Kd of 16 ± 6 nM.

Molecule B28 yielded a Kd of 11.3 ± 2 nM.

B29 displayed a Kd of 9.5 ± 0.7 nM.

For the molecule B30, the Kd stood at 7.2 ± 1.6 nM.

The molecule B31 gave a Kd of 18.9 ± 3.5 nM.

As to B32, the affinity, expressed as Kd, was 3.9 ± 0.4 nM. Against the preceding molecule, the Kd is about 4.8-fold lower.

The molecule B33 had a Kd of 10.4 ± 2 nM. This Kd lies about 2.7-fold higher than the previous one.

B34 showed a Kd of 20 ± 6 nM.

With B35, the Kd turned out to be 7.3 ± 0.8 nM.

B36 gave a Kd of 32 ± 10 nM.

These data come from PMC10786891, “Massively parallel profiling of RNA-targeting CRISPR-Cas13d”.
